Assays:
Assay in all cases: immunofluorescence (legend of FIG. 4)
[1] = molecular target: T1, human ALK2-G325A on cells (human, UniProt Q04771 21-509)
T1 sequence: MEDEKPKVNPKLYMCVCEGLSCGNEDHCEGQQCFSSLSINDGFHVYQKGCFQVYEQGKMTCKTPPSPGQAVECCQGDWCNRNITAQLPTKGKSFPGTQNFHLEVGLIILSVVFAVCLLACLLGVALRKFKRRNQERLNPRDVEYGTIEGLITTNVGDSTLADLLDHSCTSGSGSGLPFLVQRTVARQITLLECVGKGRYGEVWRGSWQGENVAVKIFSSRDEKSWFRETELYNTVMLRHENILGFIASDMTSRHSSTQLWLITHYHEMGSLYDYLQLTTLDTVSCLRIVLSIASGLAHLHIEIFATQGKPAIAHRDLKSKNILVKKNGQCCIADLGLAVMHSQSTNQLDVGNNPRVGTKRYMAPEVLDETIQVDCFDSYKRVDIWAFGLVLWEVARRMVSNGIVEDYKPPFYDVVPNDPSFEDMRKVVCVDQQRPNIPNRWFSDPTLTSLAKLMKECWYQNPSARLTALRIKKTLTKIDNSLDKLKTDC
Method: (§1) Mouse C2C12 cells were seeded into a 96-well plate (Greiner Bio-One) at 0.5×10³ cells/well, and cultured in 15% FBS-containing DMEM medium overnight under the conditions of 5% CO₂ at 37° C. On the following day, the C2C12 cells were transfected with each of a wild-type human ALK2 cDNA integrated into pcDEF3; pcDEF3/human ALK2-L196P, pcDEF3/human ALK2-P197_F198delinsL, pcDEF3/human ALK2-R202I, pcDEF3/human ALK2-R206H, pcDEF3/human ALK2-Q207E, pcDEF3/human ALK2-R258S, pcDEF3/human ALK2-G325A, pcDEF3/human ALK2-G328E, pcDEF3/human ALK2-G328R, pcDEF3/human ALK2-G328W, pcDEF3/human ALK2-G356D, and pcDEF3/human ALK2-R375P, which are variants identified in FOP; and pcDEF3 as a control, using Lipofectamine 2000 (Invitrogen), and further cultured overnight.
(§2) The C2C12 cells were fixed with 10% neutral formalin (Nacalai Tesque, Japan) for 20 minutes at room temperature, and then blocked with 10% goat normal serum for 30 minutes. After the blocking agent was removed, purified IgG diluted to 10 μg/mL with the blocking agent was added, and the cells were left for 1 hour at room temperature. After the cells were washed with PBS three times, Goat Alexa 594-conjugated anti-rat IgG (Invitrogen) diluted to 1:1000 with the blocking agent was added, and the cells were left for 1 hour at room temperature. After the cells were washed with PBS three times, the cells were fixed with 10% neutral formalin for 15 minutes at room temperature, and nuclear-stained with DAPI (LifeTechnologies). Fluorescent signals were analyzed with a fluorescence microscope BZ-9000 (Keyence).

[2] = molecular target: T2, human ALK2-G328R on cells (human, UniProt Q04771 21-509)
T2 sequence: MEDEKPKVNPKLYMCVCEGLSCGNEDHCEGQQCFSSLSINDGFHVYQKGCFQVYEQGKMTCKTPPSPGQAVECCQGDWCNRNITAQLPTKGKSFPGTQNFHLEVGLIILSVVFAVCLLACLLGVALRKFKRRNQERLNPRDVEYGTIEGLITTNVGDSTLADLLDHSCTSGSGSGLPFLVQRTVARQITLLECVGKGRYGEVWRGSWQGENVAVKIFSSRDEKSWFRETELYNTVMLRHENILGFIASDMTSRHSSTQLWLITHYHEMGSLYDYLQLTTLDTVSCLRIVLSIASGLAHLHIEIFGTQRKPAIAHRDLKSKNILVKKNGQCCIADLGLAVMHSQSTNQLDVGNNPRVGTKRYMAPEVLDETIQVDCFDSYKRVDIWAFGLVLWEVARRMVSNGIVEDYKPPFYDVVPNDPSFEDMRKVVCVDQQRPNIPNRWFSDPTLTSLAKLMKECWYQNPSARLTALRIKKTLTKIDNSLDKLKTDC
Method: as §1, §2

[3] = molecular target: T3, human ALK2-Q207E on cells (human, UniProt Q04771 21-509)
T3 sequence: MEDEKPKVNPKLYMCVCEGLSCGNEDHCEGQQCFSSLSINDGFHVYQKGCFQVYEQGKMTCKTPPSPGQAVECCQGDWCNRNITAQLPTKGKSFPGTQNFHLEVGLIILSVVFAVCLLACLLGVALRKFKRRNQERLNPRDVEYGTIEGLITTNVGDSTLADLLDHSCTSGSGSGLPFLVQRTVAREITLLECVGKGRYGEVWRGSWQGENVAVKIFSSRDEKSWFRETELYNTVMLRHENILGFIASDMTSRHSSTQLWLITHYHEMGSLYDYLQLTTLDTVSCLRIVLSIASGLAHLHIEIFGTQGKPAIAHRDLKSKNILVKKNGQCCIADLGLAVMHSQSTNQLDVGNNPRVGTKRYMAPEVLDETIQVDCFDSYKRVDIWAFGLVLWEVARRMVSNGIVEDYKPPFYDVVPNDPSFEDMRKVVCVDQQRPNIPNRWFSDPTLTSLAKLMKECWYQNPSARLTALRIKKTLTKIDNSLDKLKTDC
Method: as §1, §2

[4] = molecular target: T4, human ALK2-R258S on cells (human, UniProt Q04771 21-509)
T4 sequence: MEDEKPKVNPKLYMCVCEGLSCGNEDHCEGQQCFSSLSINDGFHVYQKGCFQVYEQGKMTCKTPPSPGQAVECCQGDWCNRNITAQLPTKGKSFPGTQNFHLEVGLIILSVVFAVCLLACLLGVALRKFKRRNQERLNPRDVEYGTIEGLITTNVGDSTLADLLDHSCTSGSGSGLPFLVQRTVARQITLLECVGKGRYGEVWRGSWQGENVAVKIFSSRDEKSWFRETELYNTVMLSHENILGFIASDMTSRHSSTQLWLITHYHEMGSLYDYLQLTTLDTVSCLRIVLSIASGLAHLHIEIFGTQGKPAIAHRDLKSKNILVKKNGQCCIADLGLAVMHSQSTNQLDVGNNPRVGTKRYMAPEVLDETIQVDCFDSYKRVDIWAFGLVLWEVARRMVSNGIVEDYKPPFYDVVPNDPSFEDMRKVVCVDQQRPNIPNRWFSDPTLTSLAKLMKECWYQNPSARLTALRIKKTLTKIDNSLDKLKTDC
Method: as §1, §2

Measured: binding result

B1: rat anti-ALK2 monoclonal antibody A2-11E (antibody, V domains shown)
VH: EVQLVETGGGLVQPGRSLKLSCVASGFTFSNYYMYWIRQAPGKGLEWISSINTDGGSTYYPDSVKGRFAISRDNAENTVYLQMNSLRSEDTATYYCAKSTPNIPLAYWGQGTLVTVSS
VL: DIQMTQSPSLLSASVGDRVTLSCKASQNIYKYLNWFQQKLGEAPKLLIYYSNSLQTGIPSRFSGSGSGTDFTLTISSLQPEDVAIYFCFQYSSGPTFGPGTKLELKR
notes: Rat monoclonal IgG from a hybridoma; also called 11E2
binds: [1] | [2] | [3] | [4]

B2: rat anti-ALK2 monoclonal antibody A2-15A (antibody, V domains shown)
VH: EVQLVESGGGLVQPGRSLKLSCAASGFTFSHYYMAWVRQAPTKGLEWVASITNSGGSINYRDSVKGRFTISRDNAKSTLYLQMDSLRSEDTATYYCTREGGENYGGYPPFAYWGQGTLVTVSS
VL: DIVLTQSPALAVSLGQRATISCRANQGVSLSRYNLMHWYQQKPGQKPKLLIYRSSNLASGIPARFSGSGSGTDFTLTINPVQADDIATYYCQQSRESPFTFGAGTKLELKR
notes: Rat monoclonal IgG from a hybridoma; also called 15A6
binds: [1] | [2] | [3] | [4]

— patent US20220041738A1 (SAITAMA MEDICAL UNIVERSITY, published 2022)
